Assay in all cases: cell-based or functional assay
The target of test [1] is hemagglutinin (HA) of A/Beijing/262/95 (H1N1) on pseudotyped lentivirus (Influenza virus A/Beijing/262/95 (H1N1)).
The target of test [2] is hemagglutinin (HA) of A/Fort Monmouth/1/47 (H1N1) on pseudotyped lentivirus (Influenza virus A/Fort Monmouth/1/47 (H1N1)) (UniProt A4U7A6).
For test [3], the target named is hemagglutinin (HA) of A/Hong Kong/117/77 (H1N1) on pseudotyped lentivirus (Influenza virus A/Hong Kong/117/77 (H1N1)) (UniProt P18875).
Test [4] concerns the target hemagglutinin (HA) of A/Iowa/43 (H1N1) on pseudotyped lentivirus (Influenza virus A/Iowa/43 (H1N1)) (UniProt A4GCK8).
In test [5] the target is hemagglutinin (HA) of A/New Caledonia/20/99 (H1N1) on pseudotyped lentivirus (Influenza virus A/New Caledonia/20/1999 (H1N1)) (UniProt Q289M7).
In test [6] the target is hemagglutinin (HA) of A/New Jersey/76 (H1N1) on pseudotyped lentivirus (Influenza virus A/New Jersey/76 (H1N1)).
The target in test [7] is hemagglutinin (HA) of A/New York/146/00 (H1N1) on pseudotyped lentivirus (Influenza virus A/New York/146/00 (H1N1)).
Test [8] concerns the target hemagglutinin (HA) of A/New York/653/96 (H1N1) on pseudotyped lentivirus (Influenza virus A/New York/653/96 (H1N1)).
Test [9] deals with hemagglutinin (HA) of A/New York/8/06 (H1N1) on pseudotyped lentivirus (Influenza virus A/New York/8/06 (H1N1)).
Test [10] has as its target hemagglutinin (HA) of A/Puerto Rico/8/34 (H1N1) on pseudotyped lentivirus (Influenza virus A/Puerto Rico/8/34 (H1N1)) (UniProt P03452).
The target in test [11] is hemagglutinin (HA) of A/Singapore/6/86 (H1N1) on pseudotyped lentivirus (Influenza virus A/Singapore/6/86 (H1N1)) (UniProt A3DRP0).
For test [12], the target named is hemagglutinin (HA) of A/Solomon Islands/3/06 (H1N1) on pseudotyped lentivirus (Influenza virus A/Solomon Islands/3/06 (H1N1)).
Test [13] addresses hemagglutinin (HA) of A/South Carolina/1/18 (H1N1) on pseudotyped lentivirus (Influenza virus A/South Carolina/1/18 (H1N1)) (UniProt Q9WFX3).

With monoclonal antibody 441D6, the Neutralization IC50, lentivirus pseudotype neutralization assay in test [1] came out at 0.07 µg/mL; in test [2], 0.02 µg/mL; in test [3], 0.04 µg/mL; in test [4], 11.1 µg/mL; in test [5], 0.04 µg/mL; in test [6], 0.03 µg/mL. Besides, the Neutralization IC50, lentivirus pseudotype neutralization assay turned out to be 0.01 µg/mL in test [7]; 0.02 µg/mL in test [8]; 0.14 µg/mL in test [9]; 0.08 µg/mL in [10]; 0.01 µg/mL in [11]; 0.29 µg/mL in test [12]. The Neutralization IC50, lentivirus pseudotype neutralization assay in [13] amounted to 0.04 µg/mL.

In the case of “monoclonal antibody CH65 (anti-receptor binding site of HA)”, the Neutralization IC50, lentivirus pseudotype neutralization assay was 0.01 µg/mL in [1]; 5.86 µg/mL in test [2]; 0.97 µg/mL in [3]; greater than 50 µg/mL in test [4]; 0.01 µg/mL in test [5]; greater than 25 µg/mL in [6]. Also, the Neutralization IC50, lentivirus pseudotype neutralization assay in test [7] was 0.03 µg/mL; in [8], less than 0.005 µg/mL; in [9], 0.02 µg/mL; in test [10], 0.44 µg/mL; in test [11] it was less than 0.005 µg/mL; in test [12], 1.3 µg/mL. In [13], this substance yielded a Neutralization IC50, lentivirus pseudotype neutralization assay of 0.57 µg/mL.

On to “monoclonal antibody FI6v3 (anti-HA stem region)”, for which the Neutralization IC50, lentivirus pseudotype neutralization assay turned out to be 1.01 µg/mL in test [1]; 22.2 µg/mL in test [2]; 0.09 µg/mL in test [3]; 3.4 µg/mL in test [4]; 0.09 µg/mL in test [5]; 0.36 µg/mL in test [6]. The Neutralization IC50, lentivirus pseudotype neutralization assay is 0.08 µg/mL in [7]; 0.15 µg/mL in test [8]; greater than 25 µg/mL in [9]; 0.97 µg/mL in test [10]; 0.01 µg/mL in [11]; 0.94 µg/mL in test [12]. The same substance registered a Neutralization IC50, lentivirus pseudotype neutralization assay in test [13] of 4.4 µg/mL.

Values taken from patent US20220054419A1.
